Data set [1] concerns the target protein kinase A activity endogenous to HEK 293 cells (co-immunoprecipitated with tagged RXRα). The experiment in a line: cell-based or functional assay.
For data set [2], the system named is protein kinase A. The experiment in a line: Km of synthetic peptide substrates for protein kinase A. It counts as biochemical.
Data set [3] has as its system protein kinase A. As to conditions: specific PKA substrate; cited from earlier work.
Data set [4] concerns protein kinase A activity associated with RXRα. As to the kind of experiment: Protein kinase A activity in anti-Flag immunoprecipitates of PH-RXRα or RXRα transfected HEK 293 cells, synthetic peptide substrate. It counts as cell-based, human. The note with it: PH-RXRα, ligand-treated cells, inhibitor added to kinase reaction, substrate LRRASLG. As for the experimental part:
293 cells were transfected with PH-RXRα. Sample 1: 0.1% DMSO (10 minutes). […] Sample 3: 0.1% DMSO (30 minutes).
Sample 1: 0.1% DMSO (10 minutes). […] Sample 3: 0.1% DMSO (30 minutes). […] Sample 5: No immunoprecipitate.
Sample 1: 0.1% DMSO. […] Sample 3: 0.1% DMSO with PKA inhibitor. […] Sample 5: 0.1% DMSO.
Following immunoprecipitation with anti-Flag antibody, the synthetic PKA substrate, LRRASLG (SEQ ID NO: 59), was added to the immunoprecipitate along with γ-ATP.
HEK 293 were cultured and transfected essentially as described above. Immunoprecipitates were prepared using the anti-Flag antibody, M2, as described above. Assays for protein kinase A activity were performed as follows. Immunoprecipitated complexes were resuspended in 40 μl of Kinase Assay Buffer (30 mM Tris-HCl, pH 7.4 and 10 mM MgCl2). Kinase reactions were initiated by addition of 10 μl of 500 μM synthetic peptide LRRASLG (SEQ ID NO: 59) or […] (SEQ ID NO: 60) prepared by Upstate Biotechnology (Lake Placid, N.Y.) and addition of 50 μM [γ-^32P]ATP (10 μCi) to the immune-complexes. […]
Incorporated ^32P was separated from free label by applying the reaction mixture onto P81 phosphocellulose paper and subsequently washing the paper three times with 0.75% phosphoric acid and once with acetone. Protein kinase reaction samples were analyzed in a scintillation counter to determine the amount of ^32P-incorporation.

The target of data set [5] is T1, RXRα phosphorylation by protein kinase A (Homo sapiens, UniProt P19793).
T1 construct: host or cells: HEK293
T1 sequence (P19793 1-462): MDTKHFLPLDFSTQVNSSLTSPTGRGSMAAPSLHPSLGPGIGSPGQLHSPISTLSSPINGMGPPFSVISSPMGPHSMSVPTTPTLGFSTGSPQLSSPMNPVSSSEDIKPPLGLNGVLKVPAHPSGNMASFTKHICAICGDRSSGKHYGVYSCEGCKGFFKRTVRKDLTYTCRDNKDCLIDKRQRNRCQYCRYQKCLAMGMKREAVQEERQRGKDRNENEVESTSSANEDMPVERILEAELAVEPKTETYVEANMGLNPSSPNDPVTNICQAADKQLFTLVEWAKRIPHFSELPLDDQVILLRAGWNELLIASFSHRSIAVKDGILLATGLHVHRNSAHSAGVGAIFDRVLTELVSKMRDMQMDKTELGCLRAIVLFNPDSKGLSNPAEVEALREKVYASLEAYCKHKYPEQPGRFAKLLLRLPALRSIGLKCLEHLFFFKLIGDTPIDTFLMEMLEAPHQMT
As to the kind of experiment: Phosphorylation of immunoprecipitated RXRα by purified PKA. It counts as biochemical. The note with it: inhibitor added to kinase reaction. As for the experimental part: Left panel: Cells were immunoprecipitated with anti-FLAG antibody, and the immunoprecipitates analyzed by SDS-PAGE and blotting with anti-PKA antibody. Right panel: Cells were immunoprecipitated with anti-PKA antibody, and the immunoprecipitates analyzed by SDS-PAGE and blotting with anti-FLAG antibody. B. Phosphorylation of RXRα by PKA. […] PKA I and PKC I indicate inhibitors of PKA and PKC, respectively.
RXRα-containing immunoprecipitates prepared with anti-Flag antibody were incubated with purified catalytically active PKA (Upstate Biotechnology) and […]; in addition, protein kinase A inhibitor or protein kinase C inhibitor was added to some reactions as indicated. The kinase reaction products were analyzed by SDS-PAGE.

Data set [6] addresses protein kinase A activity endogenous to 3T3-L1 adipocytes. As to the kind of experiment: cell-based or functional assay.
Data set [7] concerns T2, Flag-RXRα (human retinoid X receptor α fused to the Flag epitope tag).
T2 sequence: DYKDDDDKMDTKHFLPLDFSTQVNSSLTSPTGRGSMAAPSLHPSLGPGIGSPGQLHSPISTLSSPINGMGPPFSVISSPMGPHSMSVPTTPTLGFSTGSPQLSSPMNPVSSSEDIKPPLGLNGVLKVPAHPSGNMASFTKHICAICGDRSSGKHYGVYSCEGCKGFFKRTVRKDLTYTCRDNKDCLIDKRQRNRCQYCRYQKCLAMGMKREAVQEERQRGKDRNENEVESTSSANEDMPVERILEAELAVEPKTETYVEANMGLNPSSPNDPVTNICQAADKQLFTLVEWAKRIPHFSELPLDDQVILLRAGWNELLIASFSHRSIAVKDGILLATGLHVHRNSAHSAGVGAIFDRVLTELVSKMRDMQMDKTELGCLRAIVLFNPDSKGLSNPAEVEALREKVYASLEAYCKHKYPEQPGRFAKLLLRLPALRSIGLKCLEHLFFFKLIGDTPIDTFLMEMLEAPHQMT

Data set [8] addresses Flag-tagged PH-RXRα (Flag tag, pleckstrin homology domain of human insulin receptor substrate-1, human RXRα) (UniProt P35568).

As for “Flag-tagged PH-RXRα (Flag tag, pleckstrin homology domain of human insulin receptor substrate-1, human RXRα) (from UniProt P35568 12-115)”, the protein kinase A activity in anti-FLAG immunoprecipitates (32P incorporation into …), AGN194204-treated against DMSO-treated cells in data set [1] is greater than 2 fold.
By Km is commonly meant the concentration of substrate that gives half-maximal velocity. Regarding “GRTGRRNSI [SEQ ID NO: 60, specific protein kinase A substrate]”, in the data set with protein kinase A [2] (relative to kemptide), the “fold higher Vmax than kemptide” value is “about 2 fold”. Besides, the “fold lower Km than kemptide” value with protein kinase A [2] (relative to kemptide (SEQ ID NO: 59)) is “approximately 40 fold”. Moreover, the Km in the data set on protein kinase A [3] was 0.11 µM.
Regarding RFARKGALRGKNV, the “inhibition of RXRα-associated PKA activity” value in data set [4] is reported as “not”. For the same substance, in data set [5], the “inhibition of RXRα phosphorylation by purified PKA” value is reported as “not”.
For “endogenous RXRα of untransfected 3T3-L1 adipocytes (from UniProt P28700 1-467) (receptor)”, the PKA activity in anti-RXRα (D20) immunoprecipitates (32P incorporation into SEQ ID NO: 59), ligand-treated against vehicle-treated cells in data set [6] amounted to 2 fold.
As for “protein kinase A activity endogenous to HEK 293 cells (co-immunoprecipitated with tagged RXRα)”, the “protein kinase A activity in anti-Flag immunoprecipitates (32P incorporation into LRRASLG)” value is “protein kinase A activity associated with RXRα lacking a fused pleckstrin homology domain was significantly enhanced in cells treated with 10^-7 M AGN194204 as compared to control vehicle” in data set [7] and “significantly more protein kinase A activity was detected in immunoprecipitates from cells treated with AGN194024 ligand than in immunoprecipitates treated with control vehicle” in data set [8].
“purified catalytically active PKA (Upstate Biotechnology)”: the “in vitro phosphorylation of immunoprecipitated RXRα by purified PKA (SDS-PAGE)” value in data set [7] was “RXRα was phosphorylated, and the extent of phosphorylation was increased by addition of RXRα ligand, AGN194204”.

Values taken from patent US20050130232A1, “Methods of screening for compounds that modulate hormone receptor activity” (Allergan, Inc., priority 2001, published 2005).
